According to patent US6380373B1, “Steroid receptor coactivator compositions and methods of use” (Baylor College of Medicine, priority 1995, dated 2002):

Target: T1, E47 (Homo sapiens, UniProt P15923)
T1 sequence (P15923 1-651 isoform P15923-2): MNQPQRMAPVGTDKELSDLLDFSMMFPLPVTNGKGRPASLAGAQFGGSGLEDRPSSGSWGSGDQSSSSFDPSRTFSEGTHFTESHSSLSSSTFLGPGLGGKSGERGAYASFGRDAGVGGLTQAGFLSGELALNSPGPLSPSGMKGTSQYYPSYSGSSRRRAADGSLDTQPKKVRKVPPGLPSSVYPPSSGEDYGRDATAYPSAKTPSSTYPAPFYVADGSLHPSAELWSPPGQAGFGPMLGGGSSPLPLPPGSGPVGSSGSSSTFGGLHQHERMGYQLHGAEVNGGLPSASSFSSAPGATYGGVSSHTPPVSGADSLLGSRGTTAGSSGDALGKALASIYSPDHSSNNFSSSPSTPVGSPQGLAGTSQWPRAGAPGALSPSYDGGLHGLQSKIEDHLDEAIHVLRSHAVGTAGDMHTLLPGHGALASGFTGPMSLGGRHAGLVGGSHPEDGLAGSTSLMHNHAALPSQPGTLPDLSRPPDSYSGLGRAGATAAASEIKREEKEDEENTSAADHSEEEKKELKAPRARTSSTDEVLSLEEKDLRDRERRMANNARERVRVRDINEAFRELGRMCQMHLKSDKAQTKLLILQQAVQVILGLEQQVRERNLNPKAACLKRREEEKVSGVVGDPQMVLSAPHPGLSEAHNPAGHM
Experiment: Effect on the transcriptional activity of E47
Format: cell-based

B1: steroid receptor coactivator-one (SRC-1), full-length (protein)
chain: MSIPRVNPSVNPSISPAHGVARSSTLPPSNSNMVSTRINRQQSSDLHSSSHSNSSNSQGSFGCSPGSQIVANVALNKGQASSQSSKPSLNLNNPPMEGTGISLAQFMSPRRQVTSGLATRPRMPNNSFPPNISTLSSPVGMTSSACNNNNRSYSNIPVTSLQGMNEGPNNSVGFSASSPVLRQMSSQNSPSRLNIQPAKAESKDNKEIASTLNEMIQSDNSSSDGKPLDSGLLHNNDRLSDGDSKYSQTSHKLVQLLTTTAEQQLRHADIDTSCKDVLSCTGTSNSASANSSGGSCPSSHSSLTARHKILHRLLQEGSPSDITTLSVEPDKKDSASTSVSVTGQVQGNSSIKLELDASKKKESKDHQLLRYLLDKDEKDLRSTPNLSLDDVKVKVEKKEQMDPCNTNPTPMTKATPEEIKLEAQSQFTADLDQFDQLLPTLEKAAQLPGLCETDRMDGAVTSVTIKSEILPASLQSATARPTSRLNRLPELELEAIDNQFGQPGTGDQIPWTNNTVTAINQSKSEDQCISSQLDELLCPPTTVEGRNDEKALLEQLVSFLSGKDETELAELDRALGIDKLVQGGGLDVLSERFPPQQATPPLIMEERPNLYSQPYSSPFPTANLPSPFQGMVRQKPSLGTMPVQVTPPRGAFSPGMGMQPRQTLNRPPAAPNQLRLQLQQRLQGQQQLIHQNRQAILNQFAATAPVGINMRSGMQQQITPQPPLNAQMLAQRQRELYSQQHRQRQLIQQQRAMLMRQQSFGNNLPPSSGLPVQTGNPRLPQGAPQQFPYPPNYGTNPGTPPASTSPFSQLAANPEASLANRNSMVSRGMTGNIGGQFGTGINPQMQQNVFQYPGAGMVPQGEANFAPSLSPGSSMVPMPIPPPQSSLLQQTPPASGYQSPDMKAWQQGAIGNNNVFSQAVQNQPTPAQPGVYNNMSITVSMAGGNTNVQNMNPMMAQMQMSSLQMPGMNTVCPEQINDPALRHTGLYCNQLSSTDLLKTEADGTQQVQQVQVFADVQCTVNLVGGDPYLNQPGPLGTQKPTSGPQTPQAQQKSLLQQLLTE
  effect on E47 transcriptional activity: did not alter
